According to a protein production outcome set (Wang et al. 2014):

Experiment: label from the status in PepcDB records
For “MKPNIVLIMVDQMRGDCLGVNGNEFIETPNLDMMATEGYNFENAYTAVPSCIASRASILTGMSQKSHGRVGYEDGVSWNYENTIASEFSKAGYHTQCIGKMHVYPERNLCGFHNIMLHDGYLHFARNKEGKASTQIEQCDDYLKWFREKKGHNVDLIDIGLDCNSWVSRPWGYEENLHPTNWVVNESIDFLRRRDPSKPFFLKMSFVRPHSPLDPPKFYFDMYKDEDLPEPLMGDWANKEDEENRGKDINCVKGIINKKALKRAKAAYYGSITHIDHQIGRFLIALSEYGKLNNTIFLFVSDHGDMMGDHNWFRKGIPYEGSARVPFFIYDPGNLLKGKKGKVFDEVLELRDIMPTLLDFAHISIPDSVEGLSLKDLIEERNSTWRDYIHGEHSFGEDSNHYIVTKKDKFLWFSQRGEEQYFDLEKDPKELTNLINSEEYKERIDYLRKILIKELEGREEGYTDGNKLLKGYPVSTLKHIR”, the protein production was “failed”. With “MKPRGICFFDMDGTLLNSESKVLDTSLQALDKLRENNVIPVIATGRTLIEISHQMKITGIESAVMMNGQMAIFEGEKVYEDVIDADLLDRLTEEAKSQNVEVCYYNDKRIGATASTPVVKAHYDFLGEPMPKVRPNMYKEETINMALLLLETGDDYFPERFPELQFVRNTPFSNDVLRKGGSKAVGISKLLEVMGYQDVPTYAFGDGMNDLEMFGAVDYAIAMENAVPLLKEKADFVTKDNNSDGIMLGLKQFDLI” the protein production was “failed”. With “MKPRISVIIPTYNREELLRRAIESVLDQTFDDFEILVIDGAKSESTRELVRSFGDGRIRYIPQKGKGIANARNLGVSKARGEFIAFLDDDDRWRRDKLELQLELFKVLPQSYGVVYTAFTYYYLEKDKVLGIKHPRASGDVYKHLLKDNITGTSTIMVKRECFKKVGLFREDFVTCEDWDMWLRMAKVCYFGAIDEPLVDYSIHSGQFSFAKYLEGRYKMIEKHLDIKRNPRVLSYHLLQIGVLKLFSGDKRGVEDLLKAFRLNPTIRGNIWDILSSFVDVRTRIYILKFLGRLLEHHHHHH” the protein production was “not failed”. In the case of “MKPSGEDQAALAAGPWEECFQAAVQLALRAGQIIRKALTEEKRVSTKTSAADLVTETDHLVEDLIISELRERFPSHRFIAEEAAASGAKCVLTHSPTWIIDPIDGTCNFVHRFPTVAVSIGFAVRQELEFGVIYHCTEERLYTGRRGRGAFCNGQRLRVSGETDLSKALVLTEIGPKRDPATLKLFLSNMERLLHAKAHGVRVIGSSTLALCHLASGAADAYYQFGLHCWDLAAATVIIREAGGIVIDTSGGPLDLMACRVVAASTREMAMLIAQALQTINYGRDDEK”, the protein production is reported as “not failed”. For “MKPTLLVLAAGMGSRYGGVKQIAAVGRHDETLLDYAVYDAMNNGFGKVVFIIREDIENDFRERFFNRIARNCNADYVFQSMDGFLTDEQIKRAVNRKKPWGTAHAILSAELKINEPFAVINADDYYGRSAYKTIATHLSTLSNDSTEHAMVGYILDKTLSRSGSVSRGVCQVGNGYLIGITEHKDIAYKKEGSVEKIVSEHEGKTVEFSGKETVSMNLFGFSPKIFDFMNEYFKDFIHKYAESEKAECLLPEGVGAMMKKGLGKVKVYTTTERWFGMTYPEDREIVKKELENKVKEGYYPEFLWR”, the protein production was “failed”. For “MKPVAPRSFFAMDFLEFITAWEGKWLSQRTNYSFEQNEAGNAKSDVTVQRWDSQTELGRSLLERAGLKNQGELILLQLSWDNSVDWGKSKQKGTIYYGFLPDADHGDRGQLWRGTTNSNLAFLRGDYHLGSDECLTLNLGDGETSLTERHWYASPNLRLRTSLIQQGEGYSHSAFYSDIRRLPPAE”, the protein production was “failed”. With “MKQEEEPWIDHLKQRVNEYEKPLPENDWNHFQTEFFTPYLHKRRRMKTMRIAAVFFLIFIPFATTFYFLQTEKHEAASPVVSLPACQPRSITGSPSIMPENKLLQDRTKSKTASLTRPPIQTSIHTDTANNIETECMPPVQDTIRDTESVHKRPSGHKHFALPYKRSGYTLALAISAGNNGASTGFINKTFSRGDIGSSHKDEIMYWSDFKDYLQEYPSDFPDAQAYEALLQIANDNTGRPMTEYTHYNLPVSIELSLRKSISRHWGVSAGLQYTYLSSESSIGEDSKWVKRQKLHYIGLSVKLDRRLYTTRTFSFYATGGGTIDKSVSGKLEQDFIVQKEKIYSSTENLKIKPFQFSIHAALGIQYNINPTLGAFIEPGTVFYFKDGSFKNTIRDKHPLHFNLQLGVRWNY” the protein production was “failed”. In the case of “MKQEFVAAIEIDGTGRIHVTPGESQFPYIYREAMEVSWNESTRSLHSPVPREWSYAQWLQQIFAAASEQGVKLVLGPNTRWVNVPNELRAELTHAAAA”, the protein production is reported as “not failed”. With “MKQGKISDYVNPVPIKITDDKAIFKVEKLVPTPYIERVLPLEYAPLYEQLAELDTAIPKIVCLEKSDRLTVIEEYIDSPRLDQYLETHKLTSAQIHDLICQLLDVLAVLHQQIPPIIHRDIKPENIFYDGQKLILADFDIARNMQEDADRDTRILGSVGYAAPEQFGFSQSGPASDFYAVGVLMNVLYTGYLPSVRLYKGPEREIIEKATHINSQKRYQSAQEFKDAITGLGRSSWLLPGFRSHQPARMLTAGCGYLLMLFSSFSMDAKSDSAADSFLLRLSFFMVLFLIVLFACNYRNIKSICLFHSSKSKFTRACGIIISYLLVATVLTTALAALSVAISSFGH” the protein production was “failed”. For “MKQGPSSEDDCFSLLKQFEHVLESDPLIDEVGFIHPSQFTMLDKEAGFSNEFQPNNGTSSKFWNQDHKLGISTDILVQLCKDAKHVFLLALQEYKSHGNACDESQIKNISCSPCIPESDVMKHSQSVLLLSSDFGTAWNARKLILSKKDHLSAFTEELRLSGLILSNSPKSESTWSHRRWIIKMISQSFSTLQEIITKESELVESIGERSKMNYRAWYHRCWLVSYMTIEQVIQELNKSKRWAGLHVADSSCFHYRRVRAAYSVDVIVRLMLKILESLYVKGSSAYDKTEARKIWKEELDWNEELVERYVGREALWLHRRFLSLNWIMYFACNHSDASPETGESIIMNEEIAIFIDNEIRLLDSSMTVPDTKFEDFQAQALHAAVYTLWLTKSIPVLWRMLEEKLGTEKVKCVLNTIAQERPSLLHHLVNV”, the protein production was “failed”. For “MKQHILVLEDANQRRTIILDEQQYSIGRHSGTSIQIHSRQASRHHATLMRKTNSKTNEECFWIIDGDLEGNKSQNGVFVNGEKRLIHELKNGDLINFGCSINASYHVTGEGFGESSSQPVEILPQTSPYNEAVSAQIASSYNTREGVDLLAGSNDETFHEQSYLDTATDLPNQTLFLEYLNIALSNARRHHAQVGVLLCQINNWSDLKRKRGDAVANAFLQEAGQKLKSNLRNGDIVSRWDKDEFIFLVSKVQDTSSLLGIAQRLMKPVLAPVTAGGRPFQPEITYGVALYPVDGEQVNDLIGHIRENLQQLLPQPTNPGSGEADDHIETAVDVRIGAPQPVPGLSDSDQKRLAIVEKRLLRALEQHELELYYQPQINWRKKTIEAMEAFIRWQHPQKGLLPPGQFLPWSDQTEFMVPLTRWILETACQQNVLWQQQLQTPFLVSVNISEKQFYHPLLKNMVMEAIAMAKMETHYLELEIQESTVMKDFGLAQQIITNLHNYGVGFSLDDFGTDYMSLRCLQDLPFQKLKIDKSLTAQLLEQTDNVPNLTMMETLINLGKTFNLKVVAEGVEQEEQINILDSLNCFFMQGYCFSEPLNILAANSFLHKYIAGN”, the protein production was “failed”. For “MKQIIDIENWERKENFNFFRHFQNPQLSITSEVECGGARQRAKAAGQSFFLHYLYAVLRAANEIPEFRYRIDPDGRVVLYDTIDMLSPIKIKENGKFFTTRFPYHNDFDTFYQEARLIIDAIPEDGDPYAAENEEVADGDYGLILLSATPDLYFTSITGTQEKRSGNNYPLLNAGKAIIREGRLVMPIAMTIHHGFIDGHHLSLFYKKVEDFLK”, the protein production was “not failed”. In the case of “MKQKELWINQIKGLCICLVVIYHSVITFYPHLTTFQHPLSEVLSKCWIYFNLYLAPFRMPVFFFISGYLIRRYIDSVPWGNCLDKRIWNIFWVLALWGVVQWLALSALNQWLAPERDLSNASNAAYADSTGEFLHGMITASTSLWYLYALIVYFVVCKIFSRLALPLFALFVLLSVAVNFVPTPWWGMNSVIRNLPYYSLGAWFGATIMTCVKEVPLRRHLLMASLLTVLAVGAWLFTISLLLSLVSIVVIMKLFYQYEQRFGMRSTSLLNVIGSNTIAIYTTHRILVEIFSLTLLAQMNAARWSPQVELTLLLVYPFVSLFICTVAGLLVRKLSQRAFSDLLFSPPSLPAAVSYSR”, the protein production is reported as “failed”. For “MKQKSLNPLSSSSPNYDEMIQENFKPHWIIGIDPNLSGALAVLKFDDKGSCFAQVYDTPQLEVVVQNIRTRSFNEKSMLELIRSLDVPSGTKAFVAKYIHPENAITAYNDGLGCGLWTLLTSSISVIYVTPSTWDKHFNLSIWSLDGGRKLALEMFPSLKLTTKIDDNARANALLIAAYGHATSDTRYYSFSQIK”, the protein production was “failed”. With “MKQLPKTRTALLLAFLVIMWGVNWPLSKAALAYSPPLLFAGIRTLIGGLLLVIVALPRIHKLRLKETWPIYLVSALLNITLFYGLQTIGLNYLPAGLFSAIVFFQPVLMGVFSWLWLGESMFVMKVIGLILGFAGVAVISAAGFGGHISVIGVLLALGSAVSWALGTVYMKKTGSRVDSIWMVALQLTIGSVFLLISGFWTESFSAIQWTAPFITSLLFISVFVIALGWLVFFTLVGSGEASKVASYTFLIPLISIVASSIFLHEPLTLSLLAGLLLIVTSICLVNTKSKAQKAAAIGINEKAAQ” the protein production was “failed”. For “MKQPATPNAAEETKSEQKQKSKKFPTPTELISHYQKRGLEPAEASIKVIEDLQNALVRVVSSSRNASSKDKLVTDARKIDAINGRLAVVDAKLETKPGYVETFALGLASGATLNGISAVWPHVTRGIGQIWSAVRIGTDPSSTS”, the protein production was “failed”. With “MKQTAESIRDRFMKLGIDVPVEDIESRLDELIKKFKVPSNEAQRSVTNYFLKKYSIPKNEFYVRQAEPQLTKIVDIVENGQWANLKAKVIQLWENTHESISQVGLLGDETGIIKFTIWKNAELPLLEQGESYLLRSVVVGEYNDRFQVQVNKNSSIEKLSEPIEVGGGDFTPAAREAELRNIADLTGNQWATVRGKVIQLWENSHESIEQAGLIGDETGVIKFTNWASSELPDMEEGRSYLLKNVVVNEWNGKAQVQLNRSSSIEELDEDIEVRTSMSSYFGAMVDIQTGSGLIKRCPECKRALVKGACAEHGKVKGEYDLRIKAVLDSGTSTQDALINRELTEELSGISLDSAIAMAADALDPGVVLDKLKHELVGRYYTITGHKLDRYILVESITPRTSLDRELLDQMLAEPIAQPEVELEHHHHHH” the protein production was “not failed”. In the case of “MKQWADDENLPMERYKNYQMIVPAFIIKDILDGKIPETFEDSKNIKMIEASWGEESYTKGHIPTSVHVNTDIIEPPPTWMLDNDDNLTKFALDYGLTKDDTVIVSSSTPMASYRLAVILRYIGVKDVRVLNGGTNSWLSAGYELEFISNPKLEHHHHHH”, the protein production is reported as “failed”. With “MKQWLAAMETSVLVMGALRLFSGSAEIFAALLMLYVNDAKKALFINGMLAFVGPTVLILTMTIGIASVASEISFLKLFFLALGICCIFIALLK” the protein production was “failed”. In the case of “MKRAAAKHLIERYYHQLTEGCGNEACTNEFCASCPTFLRMDNNAAAIKALELYKINAKLCDPHP”, the protein production is reported as “not failed”. With “MKRDGHTHTEFCPHGTHDDVEEMILKAIELDFDEYSIVEHAPLSSEFMKNTAGNQEAVTTASMSMSDLPYYFKKMNQMKKKYASDLLIHIGFEVDYLIGYEDFTRDFLNEYGPQTDDGVLSLHFLEGQGGFRSIDFTAEDYNEGIVQFYGGFEQAQLVYLAGVKQSIEADLGAFKPRRIGHISLCQKFQQFFGADGRDFTAEVIAEFEAILALVKKRGYELDFNTAGLFKPLCKETYPPKEIVTLARALEIPFVYGSDSHGVADIGRGYNTYCQKLEHHHHHH” the protein production was “not failed”.
